{"source": "paper PMC9352680", "about": "“A comprehensive thermodynamic model for RNA binding by the Saccharomyces cerevisiae Pumilio protein PUF4”", "binders": {"B1": {"name": "Id_ii_S2_P4E.2_K4.1_C4.2_[T-1A]_H4.1_A4.1_F4.1_T4.2_[G10A]_[T11G] (ssRNA)", "RNA": "UUUGAUUAAUAUGAUAUCGUUCUUUCUCAUGUAUAUUAAGUUCUUUCUCGAUAUCAUAUUAAUCUUU"}, "B2": {"name": "Id_ii_S2_P4E.3_K4.2_C4.2_[C-2G]_H4.2_A4.1_F4.1_T4.2_[G10T]_[T11A] (ssRNA)", "RNA": "B1 RNA with C28G, A29U, G31A, A39U, G40A"}, "B3": {"name": "Id_ii_S2_P4E.2_K4.1_C4.2_H4.1_A4.1_F4.1_T4.2_[T11C] (ssRNA)", "RNA": "B1 RNA with A29U, A39G, G40C"}, "B4": {"name": "Id_ii_S2_P4E.2_K4.1_C4.2_H4.1_A4.1_F4.1_T4.2_[G10C]_[T11C] (ssRNA)", "RNA": "B1 RNA with A29U, A39C, G40C"}, "B5": {"name": "Id_ii_S2_P4E.3_K4.2_C4.2_[C-2G]_[T-1C]_H4.2_A4.1_F4.1_T4.2_[G10T]_[T11C] (ssRNA)", "RNA": "B1 RNA with C28G, A29C, G31A, A39U, G40C"}, "B6": {"name": "Id_ii_S2_P4E.3_K4.2_C4.2_[C-2G]_[T-1C]_H4.2_A4.1_F4.1_T4.2_[G10C]_[T11C] (ssRNA)", "RNA": "B1 RNA with C28G, A29C, G31A, A39C, G40C"}, "B7": {"name": "Id_ii_S2_P4E.3_K4.2_C4.2_[C-2G]_[T-1C]_H4.2_A4.1_F4.1_T4.2_[G10A]_[T11C] (ssRNA)", "RNA": "B1 RNA with C28G, A29C, G31A, G40C"}, "B8": {"name": "Id_ii_S2_P4E.2_K4.1_C4.2_[T-1A]_H4.1_A4.1_F4.1_T4.2_[G10A]_[T11A] (ssRNA)", "RNA": "B1 RNA with G40A"}, "B9": {"name": "Id_ii_S2_P4E.3_K4.2_C4.2_[C-2G]_[T-1C]_H4.2_A4.1_F4.1_T4.2_[G10A] (ssRNA)", "RNA": "B1 RNA with C28G, A29C, G31A, G40U"}, "B10": {"name": "Id_ii_S2_P4E.2_K4.1_C4.2_[T-1A]_H4.1_A4.1_F4.1_T4.2_[G10A] (ssRNA)", "RNA": "B1 RNA with G40U"}, "B11": {"name": "Ie_S2_P3E.2_K3.1_C3.2_H3.1_A3.1_F3.1_[+7T]_T3.2 (ssRNA)", "RNA": "B1 RNA with A29U, A39U, G40A"}, "B12": {"name": "Id_ii_S2_P4E.3_K4.2_C4.2_[C-2G]_[T-1C]_H4.2_A4.1_F4.1_T4.2_[G10T]_[T11G] (ssRNA)", "RNA": "B1 RNA with C28G, A29C, G31A, A39U"}, "B13": {"name": "Id_ii_S2_P4E.3_K4.2_C4.2_[C-2G]_H4.2_A4.1_F4.1_T4.2_[G10T]_[T11G] (ssRNA)", "RNA": "B1 RNA with C28G, A29U, G31A, A39U"}, "B14": {"name": "Id_ii_S2_P4E.3_K4.2_C4.2_[C-2G]_[T-1C]_H4.2_A4.1_F4.1_T4.2_[G10C]_[T11G] (ssRNA)", "RNA": "B1 RNA with C28G, A29C, G31A, A39C"}, "B15": {"name": "Id_ii_S2_P4E.2_K4.1_C4.2_H4.1_A4.1_F4.1_T4.2_[G10C] (ssRNA)", "RNA": "B1 RNA with A29U, A39C, G40U"}, "B16": {"name": "Id_ii_S2_P4E.3_K4.2_C4.2_[C-2G]_[T-1G]_H4.2_A4.1_F4.1_T4.2_[G10A] (ssRNA)", "RNA": "B1 RNA with C28G, A29G, G31A, G40U"}, "B17": {"name": "Id_ii_S2_P4E.2_K4.1_C4.2_H4.1_A4.1_F4.1_T4.2_[G10A] (ssRNA)", "RNA": "B1 RNA with A29U, G40U"}, "B18": {"name": "Id_ii_S2_P4E.2_K4.1_C4.2_H4.1_A4.1_F4.1_T4.2_[G10A]_[T11C] (ssRNA)", "RNA": "B1 RNA with A29U, G40C"}, "B19": {"name": "Id_ii_S2_P4E.2_K4.1_C4.2_[T-1A]_H4.1_A4.1_F4.1_T4.2 (ssRNA)", "RNA": "B1 RNA with A39G, G40U"}, "B20": {"name": "Id_ii_S2_P4E.2_K4.1_C4.2_H4.1_A4.1_F4.1_T4.2_[G10A]_[T11A] (ssRNA)", "RNA": "B1 RNA with A29U, G40A"}, "B21": {"name": "Id_ii_S2_P4E.3_K4.2_C4.2_[C-2G]_[T-1C]_H4.2_A4.1_F4.1_T4.2_[G10C]_[T11A] (ssRNA)", "RNA": "B1 RNA with C28G, A29C, G31A, A39C, G40A"}, "B22": {"name": "Id_ii_S2_P4E.3_K4.2_C4.2_[C-2G]_H4.2_A4.1_F4.1_T4.2_[G10C] (ssRNA)", "RNA": "B1 RNA with C28G, A29U, G31A, A39C, G40U"}}, "note": "Changes are numbered by the printed parent chain. In names and notes the source's numbering stands."}
{"target": "T1, PUF4 RNA-binding domain (Saccharomyces cerevisiae, UniProt P25339 537-888)", "T1 sequence": "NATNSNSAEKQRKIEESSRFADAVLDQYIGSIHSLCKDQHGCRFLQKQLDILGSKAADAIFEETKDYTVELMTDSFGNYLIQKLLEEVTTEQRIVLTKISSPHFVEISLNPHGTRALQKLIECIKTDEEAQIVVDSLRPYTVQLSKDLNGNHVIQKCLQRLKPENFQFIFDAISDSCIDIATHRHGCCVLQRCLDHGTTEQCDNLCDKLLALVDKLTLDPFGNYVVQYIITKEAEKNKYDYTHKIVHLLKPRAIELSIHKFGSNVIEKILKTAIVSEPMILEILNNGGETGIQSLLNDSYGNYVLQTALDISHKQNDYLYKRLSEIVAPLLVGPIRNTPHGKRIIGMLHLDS", "test": "Mg; RNA-MaP; 20 mM Na-HEPES pH 7.4, 30 mM KOAc, 0.75 mM MgCl2, 0.1% Tween-20, 5% glycerol, 0.1 mg/mL BSA, 2 mM DTT; 25 C; 0.0125-409.6 nM protein", "conditions": "tags: N-His6-TEV cleaved; C-SNAP kept, Cy3B-labelled; label: tethered on chip by stalled RNA polymerase", "units": {"Kd": "nM"}}
{"binder": "UCUCUUUAUAUUAUUGUCUCUU (ssRNA)", "note": "[Ib_S1_P5E.1_K5.1_C5.1_H5.1_[G2A]_A5.1_F5.1_[A10G]_T5.1]", "Kd": 242}
{"binder": "B1", "Kd": 2.6}
{"binder": "B2", "Kd": 53.5}
{"binder": "B3", "Kd": 0.275}
{"binder": "B4", "Kd": 0.362}
{"binder": "B5", "Kd": 22.4}
{"binder": "B6", "Kd": 23.6}
{"binder": "B7", "Kd": 57.7}
{"binder": "B8", "Kd": 0.937}
{"binder": "B9", "Kd": 16.7}
{"binder": "B10", "Kd": 0.506}
{"binder": "B11", "Kd": 0.308}
{"binder": "B12", "Kd": 29.1}
{"binder": "B13", "Kd": 11.2}
{"binder": "B14", "Kd": 37.1}
{"binder": "B15", "Kd": 0.572}
{"binder": "B16", "Kd": 57}
{"binder": "B17", "Kd": 0.317}
{"binder": "B18", "Kd": 0.566}
{"binder": "B19", "Kd": 0.425}
{"binder": "B20", "Kd": 0.537}
{"binder": "B21", "Kd": 56.6}
{"binder": "B22", "Kd": 26.9}
{"binder": "UCUCUUUAUAUUAUUCUCUCUU (ssRNA)", "note": "[Ib_S1_P5E.1_K5.1_C5.1_H5.1_[G2A]_A5.1_F5.1_[A10C]_T5.1]", "Kd": 462}
{"binder": "UCUCUUUAUAUUAUUAUCUCUU (ssRNA)", "note": "[Ia_S1_P5E.1_K5.1_C5.1_H5.1_[G2A]_A5.1_F5.1_T5.1]", "Kd": 367}
